This note sets out measurements from patent US9976134B2, “Thermolysin variants” (Danisco US Inc., priority 2007, dated 2018).

For data set [1] the following is noted: TIDE 2X 0.78 g/l, 6 gpg, pH 8.2, 30 min at 20°C, A405; variant vs wild-type thermolysin at same protein concentration. On the procedure: Thermolysin containing protease samples were obtained from filtered broth of cultures grown in microtiter plates for 3 days at 37° C. with shaking at 280 rpm under humidified aeration.
• Thermolysin containing culture supernatants (˜100-200 μg protein per ml) • TIDE® 2× (nil enzymes) detergent (P&G) • Dilution Buffer (10 mM NaCl, 0.1 mM CaCl2, 0.005% TWEEN®-80) The equipment used was a Biomek FX Robot (Beckman Coulter), a SpectraMAX MTP Reader (type 340; Molecular Devices), and an iEMS incubator/shaker (Thermo/Labsystems). MTPs were obtained from Costar (type 9017). TIDE® 2× Liquid Detergent Preparation (US Conditions):
Milli-Q water was adjusted to 6 gpg water hardness using a (Ca/Mg 3:1) hardness stock solution (282.3 g/L CaCl2.2H20, 130.1 g/L MgCl2.6H2O), 0.78 g/1 detergent TIDE® 2× was added, and the detergent solution was stirred vigorously for at least 15 minutes. Then, 5 mM HEPES was added and the pH adjusted to 8.2.
Microswatches of ¼ inch circular diameter were obtained from CFT (Vlaardingen, The Netherlands).
Two microswatches were placed vertically into each well of a 96-well microtiter plate to expose the whole surface area (i.e., not flat on the bottom of the well).
The incubator was set to 20° C. The filtered culture broth samples were tested at an appropriate concentration by dilution with a mixture of 10 mM NaCl, 0.1 mM CaCl2, 0.005% TWEEN®-80 solution. The detergent solution was prepared as described above. Then, 190 μl of detergent solution were added to each well of the MTP, containing microswatches. To this mixture, 10 μl of diluted enzyme solution were added to each well (to provide a total volume of 200 μl/well). The MTP was covered with a plate seal and placed in an incubator for 30 minutes at 20° C., with agitation at 1400 rpm (iEMS incubator). Following incubation under the appropriate conditions, 100 μl of solution from each well was removed and placed into a new MTP. Subsequently this MTP, containing 100 μl of solution/well, was read at 405 nm in a MTP-Reader. Blank controls, containing 2 microswatches/well and detergent, without the addition of thermolysin containing samples, were also included in the test.
The observed absorbance value was corrected for the blank value (obtained after incubation of microswatches in the absence of added enzyme). The resulting absorbance was a measure for the hydrolytic activity. For each sample (thermolysin or a variant) the performance index (PI) was calculated. The performance index is a comparison of the performance of the variant (actual value) and the standard thermolysin enzyme (theoretical value) at the same protein concentration. In addition, the theoretical values were calculated, using the parameters of the Langmuir equation of the standard enzyme.
C. Stability Assay in the Presence of Detergent
In this example, experiments were conducted to determine the stain removal performance of various singly substituted thermolysin (also referred to herein as Proteinase-T or PrT) variants. As described in Example 1, the stain cleaning performance of thermolysin variants was done utilizing a blood/milk/ink (BMI) microswatch assay. Briefly the cleaning performance of chosen single-substitution thermolysin variants was assessed in a TIDE® 2× microswatch assay.

Data set [2] in a line: Stability assay in 25% TIDE 2X detergent with DTPA (residual Abz-AGLA-Nba protease activity). Particulars: 60 min at 32°C; variant residual AGLA activity divided by wild-type residual activity. Format: physicochemical. An outline of the steps:
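Thermolysin variant culture supernatants stressed in TIDE 2× detergent, with or without DTPA: 60 min at 32° C or 180 min at 50° C. Residual versus unstressed activity on Abz-AGLA-Nba read kinetically at 25° C (Ex 350/Em 420). Performance index is variant residual activity divided by wild-type thermolysin residual activity.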

B1: Y151E: single-substitution thermolysin variant (SEQ ID NO:3 numbering) (protein, listed as Geobacillus caldoproteolyticus)
chain: ITGTSTVGVGRGVLGDQKNINTTYSTYYYLQDNTRGNGIFTYDAKYRTTLPGSLWADADNQFFASYDAPAVDAHYYAGVTYDYYKNVHNRLSYDGNNAAIRSSVHYSQGYNNAFWNGSQMVYGDGDGQTFIPLSGGIDVVAHELTHAVTDETAGLIYQNESGAINEAISDIFGTLVEFYANKNPDWEIGEDVYTPGISGDSLRSMSDPAKYGDPDHYSKRYTGTQDNGGVHINSGIINKAAYLISQGGTHYGVSVVGIGRDKLGKIFYRALTQYLTPTSNFSQLRAAAVQSATDLYGSTSQEVASVKQAFDAVGVK
As to B1, in data set [1], the “PI (performance index), stain removal” value stood at 1.11. The “PI (relative stability), 25% TIDE 2X with DTPA” value in data set [2] is listed as 1.10.

B2: Y151R: single-substitution thermolysin variant (SEQ ID NO:3 numbering) (protein, listed as Geobacillus caldoproteolyticus)
chain: ITGTSTVGVGRGVLGDQKNINTTYSTYYYLQDNTRGNGIFTYDAKYRTTLPGSLWADADNQFFASYDAPAVDAHYYAGVTYDYYKNVHNRLSYDGNNAAIRSSVHYSQGYNNAFWNGSQMVYGDGDGQTFIPLSGGIDVVAHELTHAVTDRTAGLIYQNESGAINEAISDIFGTLVEFYANKNPDWEIGEDVYTPGISGDSLRSMSDPAKYGDPDHYSKRYTGTQDNGGVHINSGIINKAAYLISQGGTHYGVSVVGIGRDKLGKIFYRALTQYLTPTSNFSQLRAAAVQSATDLYGSTSQEVASVKQAFDAVGVK
As to B2, the “PI (performance index), stain removal” value in data set [1] amounted to 1.75. Also, in data set [2], the “PI (relative stability), 25% TIDE 2X with DTPA” value was found to be 1.26.

B3: Y151Q: single-substitution thermolysin variant (SEQ ID NO:3 numbering) (protein, listed as Geobacillus caldoproteolyticus)
chain: ITGTSTVGVGRGVLGDQKNINTTYSTYYYLQDNTRGNGIFTYDAKYRTTLPGSLWADADNQFFASYDAPAVDAHYYAGVTYDYYKNVHNRLSYDGNNAAIRSSVHYSQGYNNAFWNGSQMVYGDGDGQTFIPLSGGIDVVAHELTHAVTDQTAGLIYQNESGAINEAISDIFGTLVEFYANKNPDWEIGEDVYTPGISGDSLRSMSDPAKYGDPDHYSKRYTGTQDNGGVHINSGIINKAAYLISQGGTHYGVSVVGIGRDKLGKIFYRALTQYLTPTSNFSQLRAAAVQSATDLYGSTSQEVASVKQAFDAVGVK
On to B3, for which, in data set [1], the “PI (performance index), stain removal” value stood at 1.29. In data set [2], the “PI (relative stability), 25% TIDE 2X with DTPA” value amounted to 1.03.

B4: Y151H: single-substitution thermolysin variant (SEQ ID NO:3 numbering) (protein, listed as Geobacillus caldoproteolyticus)
chain: ITGTSTVGVGRGVLGDQKNINTTYSTYYYLQDNTRGNGIFTYDAKYRTTLPGSLWADADNQFFASYDAPAVDAHYYAGVTYDYYKNVHNRLSYDGNNAAIRSSVHYSQGYNNAFWNGSQMVYGDGDGQTFIPLSGGIDVVAHELTHAVTDHTAGLIYQNESGAINEAISDIFGTLVEFYANKNPDWEIGEDVYTPGISGDSLRSMSDPAKYGDPDHYSKRYTGTQDNGGVHINSGIINKAAYLISQGGTHYGVSVVGIGRDKLGKIFYRALTQYLTPTSNFSQLRAAAVQSATDLYGSTSQEVASVKQAFDAVGVK
As to B4, the “PI (performance index), stain removal” value in data set [1] stood at 1.17. For the same molecule, the “PI (relative stability), 25% TIDE 2X with DTPA” value in data set [2] turned out to be 1.11.

B5: Y151M: single-substitution thermolysin variant (SEQ ID NO:3 numbering) (protein, listed as Geobacillus caldoproteolyticus)
chain: ITGTSTVGVGRGVLGDQKNINTTYSTYYYLQDNTRGNGIFTYDAKYRTTLPGSLWADADNQFFASYDAPAVDAHYYAGVTYDYYKNVHNRLSYDGNNAAIRSSVHYSQGYNNAFWNGSQMVYGDGDGQTFIPLSGGIDVVAHELTHAVTDMTAGLIYQNESGAINEAISDIFGTLVEFYANKNPDWEIGEDVYTPGISGDSLRSMSDPAKYGDPDHYSKRYTGTQDNGGVHINSGIINKAAYLISQGGTHYGVSVVGIGRDKLGKIFYRALTQYLTPTSNFSQLRAAAVQSATDLYGSTSQEVASVKQAFDAVGVK
Turning to B5, in data set [1], the “PI (performance index), stain removal” value was found to be 1.06. In addition, in data set [2], the “PI (relative stability), 25% TIDE 2X with DTPA” value amounted to 1.09.
